Results as given in patent US7510715.
Read-outs that look alike come from different tables or passages of the source.

Legend:
[1] = molecular target: human CD4 on PM1 cells (human) (UniProt P01730); assay: flow cytometry, FITC-Leu 3a on PM1 cells, no treatment; isotype control subtracted
[2] = molecular target: human CD4 on PM1 cells (human) (UniProt P01730)
[3] = molecular target: human CD4 on PM1 cells (human) (UniProt P01730); assay: flow cytometry, FITC-Leu 3a on PM1 cells after RANTES + MIP-1β (1 µg/mL each, 2 hours at 37° C.); isotype control subtracted
[4] = molecular target: human CCR5 on cells (CEM.NKR-CCR5 transfectants; PM1 T cells; PBMCs; macrophages) (human) (UniProt P51681)
[5] = molecular target: human CCR5 on cells (CEM.NKR-CCR5 transfectants; PM1 T cells; PBMCs; macrophages) (human) (UniProt P51681); assay: flow cytometry, FITC-2D7 on PM1 cells, no treatment; isotype control subtracted
[6] = molecular target: human CCR5 on cells (CEM.NKR-CCR5 transfectants; PM1 T cells; PBMCs; macrophages) (human) (UniProt P51681); assay: flow cytometry, FITC-2D7 on PM1 cells after RANTES + MIP-1β (1 µg/mL each, 2 hours at 37° C.); isotype control subtracted
[7] = molecular target: human CCR5 on cells (CEM.NKR-CCR5 transfectants; PM1 T cells; PBMCs; macrophages) (human) (UniProt P51681); assay: cell-based or functional assay

Substance: FITC-conjugated Leu 3a (anti-hCD4; Becton Dickinson) (antibody)
- ΔMFC [1]: 112 ΔMFC
- ΔMFC [2]: 105 ΔMFC
- ΔMFC [3]: 109 ΔMFC

Substance: FITC-conjugated 2D7 (anti-CCR5; Pharmingen) (antibody)
- ΔMFC [4]: 104 ΔMFC
- ΔMFC [5]: 119 ΔMFC
- ΔMFC [6]: 35 ΔMFC

Substance: recombinant Plasmodium falciparum cyclophilin (PfCyp19) (enzyme)
- Inhibition, % of 12E1(JR-FL)/PM1 fusion, P falciparum cyclophilin at 10 µg/mL [7]: 0%
